Data as given in the supplement of paper PMC9170038.

Key:
MS2 coat protein [1] = assay: apparent KD of MS2 coat protein, switch OFF state (with FMN for OFF switches, without FMN for ON switches); designed switch direction (-1 OFF switch, 1 ON switch): -1; higher = weaker reporter binding; settings: FMN input: 0 or 200 uM; Eterna round: R93 (includes R88 designs)
How it was run: (§1)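 Apparent KD is reported per design as the median of normalised binding-curve fits across its clusters. The RNA switches were made by on-chip transcription from Illumina sequencing clusters. SNAP-549-labelled MS2 coat protein was then added in twofold steps (0.7 or 1.5 nM to 3 µM; 0.8–1.5 h to 10–20 min per step) in 100 mM Tris-HCl pH 7.5, 80 mM KCl, 4 mM MgCl2, without or with constant ligand.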

MS2 coat protein [2] = assay: apparent KD of MS2 coat protein, switch ON state; designed switch direction (-1 OFF switch, 1 ON switch): -1; higher = weaker reporter binding; settings: FMN input: 0 or 200 uM; Eterna round: R93 (includes R88 designs)
How it was run: as §1

Sequence | apparent KD of MS2 coat protein (MS2 coat protein [1]) | apparent KD of MS2 coat protein (MS2 coat protein [2])
AAAAAACAUGAGGAUCACCCAUGUGAGGAUAUGCAUAAAAAAAAAAAAAAAAAAAAAUGCAGAAGGCACAUAAA [jn_bayonne] | 78.5 nM | 40.1 nM
AAGACUACAGGAUAUACAUGAGGAUCACCCAUGUAACUGACGGGUAGAUGACGGAGAAGUAGAAGGGUAGUCAA [Ruby 37] | 40.6 nM | 67.2 nM
AAAGGACAUGAGGAUCACCCAUGUGAGGAUAUGCGAAAAAAAAAAAUAAAAAAAAAAAGUAGAAGGCACACCAA [Mat - Exclusion 1 - Eli mod - D57] | 128 nM | 99.4 nM
CUCAUGUCAGGAUAUGUAGCAUGAUACGAAAGUAUCAUGCUACAGAAGGGACAUGAGGAUCACCCAUGUCCAAA [Ex4: 944] | 37.7 nM | 119 nM
AGGGAGUGAGGAUAUGCGAAAUAAAAAGAAGGAAAAAAAGAGCAGAAGGCACAUGAGGAUCACCCAUGUGAGAA [milkweed 11] | 15.7 nM | 22.6 nM
AACAUGUAAGGAUAUGCUGCUCGUCACGAAAGUGAUGAGUAGCAGAAGGUACAUGAGGAUCACCCAUGUAAAGA | 156 nM | 49 nM
AAAAUGGCAGGAUAUACUAAAAUAAAAAACUAUGCUAAAACACAUGAGGAUCACCCAUGUAGAAGGGCCAAAAA [AJ 5] | 18.8 nM | 26.2 nM
AAGAAGCAAGGAUAUACAUGAGGAUCACCCAUGUAAAAGAAAGAAGGGAAAGAGAAAAGUAGAAGGUGCAAGAA [Shepsesre Tefnakhte] | 30.1 nM | 25.7 nM
AAUAAGUGAGGAUAUGGAAAUAAUAAAUAAAAUACCCUAAACCAGAAGGCACAUGAGGAUCACCCAUGUAAAUA [JR_Exc004_Sub003] | 28 nM | 34.1 nM
GCUUGGGAAGGAUAUACAUGAGGAUCACCCAUGUGAGAGAAAAAAGUGAGAAAGAAAAGUAGAAGGUCCUGAGG [salish99-ex3-108] | 152 nM | 71.2 nM
AAGAAGUGAGGAUAUGUCUGUGCGAAAAAAAAAAAGUGCAGACAGAAGGCACAUGAGGAUCACCCAUGUCAAAA [Florian Witold Znaniecki] | 39 nM | 39.4 nM
AAACCACAUGAGGAUCACCCAUGUGAGGAUAUGAACGAAAUAAAAUAAAAAUAAAAGUUCAGAAGGCACAAAAA [Mat - Exclusion 1 - Eli mod - D14] | 20.6 nM | 18.2 nM
AAGAACACAGGAUAUACAUGAGGAUCACCCAUGUAAAAGAAAGAGGGAAAAGAGAAAAGUAGAAGGGUGAAGAA [Hugronaphor] | 31.4 nM | 33.1 nM
AAAAAACAUGAGGAUCACCCAUGUGAGGAUAUGAAAAAACAAAAAAAAAAGUAAUCAAUCAGAAGGCACAACAA [JR_Exc--1_Sub1210] | 28.9 nM | 27.4 nM
AGGAGACAUGAGGAUCACCCAUGUUAGGAUAUGAACGAAAAUAAAUAAAAAUAAAAGUUCAGAAGGGACGAAAA [66%, Wbt, 8] | 44.7 nM | 43.3 nM
AGCUAGUCAGGAUAUACGAACAUGUCAAAAGACGUGAAGGGACAUGAGGAUCACCCAUGUAGAAGGGACUAGCC [salish99-Ex2-17] | 145 nM | 33.2 nM
AGCAAACAUGAGGAUCACCCAUGUCAGGAUAUGAACGAAAUAAAAUAAAAAUAAAAGUUCAGAAGGGACGAGCA [Mat - Exclusion 1 - Eli mod - D24] | 43.5 nM | 32.3 nM
AGAAAACAUGAGGAUCACCCAUGUCAGGAUAUCUAAAAGAAAAGAAAAGAAAGAAGAAAGAGAAGGGACAAGAA [Sekhemib-Perenmaat] | 25.5 nM | 22.1 nM
CUCUAGUGAGGAUAUACAAGAAAAGAAGAGAAAGAAAAGAAGUAGAAGGCACAUGAGGAUCACCCAUGUAAGAA [EteRNA is fun!] | 33.6 nM | 24.7 nM
AUAAACGGAGGAUAUACAUGAGGAUCACCCAUGUAAAAAAAAAAAAGUUCCUCAAAAAGUAGAAGGUCGAAUAA [JR_Exc003_Sub012] | 13 nM | 15.5 nM
AACAUGUCAGGAUAUGUACGAAAAAAUAAAAAAAUAAAAGUACAGAAGGGACAUGAGGAUCACCCAUGUCAGGG [EX4 393: Minimal 6] | 20 nM | 100 nM
AAUGCGGCAGGAUAUACAUGAGGAUCACCCAUGUAGAUCAGAUAUAUGGGAAAGCCAUGUAGAAGGGCCGCAAA [Ex 3May 61] | 24.8 nM | 94.6 nM
AAUAAGUCAGGAUAUACUAUGUCAGGAGAGAGACUGACUAUGUAGAAGGGACAUGAGGAUCACCCAUGUAAUAA [JR_Exclusion4_Sub5] | 36.1 nM | 47.4 nM

Sequence | apparent KD of MS2 coat protein (MS2 coat protein [1]) | apparent KD of MS2 coat protein (MS2 coat protein [2])
UCACACCUAGGAUAUACAUGAGGAUCACCCAUGUGGCACUCCGCAGGCAUUGCUCCCAGUAGAAGGAGGACACG [Veterexe] | 23.8 nM | 18.9 nM
AACAGUACAGGAUAUACAUGAGGAUCACCCAUGUGAGAGAAAUAAAACAAAAAUAAAAGUAGAAGGGUACUGGA [Moding Maslow revisited (73) 22] | 43.3 nM | 41.7 nM
GGGCCACAUGAGGAUCACCCAUGUAAGGAUAUGCUAGGGAGGGAAAAAAUUUCGCCAGGCAGAAGGUACUAAAG [Janelle Amethyst 18 Mod 7 - Jieux - Exclusion 1] | 31.4 nM | 23.6 nM
AACAAACAUGAGGAUCACCCAUGUAAGGAUAUGCAACAAAAACAAAAAACAAAAAAAAGCAGAAGGUACAACAA [Amethyst 99] | 28.8 nM | 25.6 nM
AGGAAACAUGAGGAUCACCCAUGUAAGGAUAUGAACGAAAUAAAAUAAAAAUAAAAGUUCAGAAGGUACGAAAA [Mat - Exclusion 1 - Eli mod - D9] | 40.3 nM | 22.1 nM
UUUAAGUGAGGAUAUACGAAUAGUAAGUAAGUAUAACAGACGUAGAAGGCACAUGAGGAUCACCCAUGUAAAUA [JR_Exc004_Sub305] | 18.6 nM | 24.4 nM
AAAGGACGAGGAUAUACAUGAGGAUCACCCAUGUAAAAAGCGUAGUAAAAGAACUUAUGUAGAAGGCGUCCAAA [Meechl Ex3 2 R2 v3] | 137 nM | 59.4 nM
AAGAAAGCAGGAUAUACAUGAGGAUCACCCAUGUAAAAGAAAGAAGGGAAAGAGAAAAGUAGAAGGGCUAAGAA [Wehemibre Necho II] | 38.7 nM | 20.9 nM
AAGAAACAUGAGGAUCACCCAUGUAAGGAUAUCUAAAAGAAAAGAAAAGAAAGAAGAAGGAGAAGGUACAAAGG [Sehertawy Intef I] | 30 nM | 26.1 nM
AAGAAUUCAGGAUAUACAAGGAAGAAAGAAAAGAAAAGAAAACAUGAGGAUCACCCAUGUAGAAGGGAAUAGAA [EteRNA is fun!] | 26.6 nM | 40 nM
AAAAAUCGAGGAUAUACAUGAGGAUCACCCAUGUGGGAACACGAUUACACAAAAGAAAGUAGAAGGCGAUAAAA [Ex 3 May 22] | 162 nM | 28.2 nM
AACAGUACAGGAUAUACAUGAGGAUCACCCAUGUGAAAAUUAAGUGGGAGACCACAAGGUAGAAGGGUACUGGA [Mat - Exclusion 3 - Eli mod - D65] | 57.7 nM | 176 nM
AAAGGACGAGGAUAUACAUGAGGAUCACCCAUGUAAAAAACGUAAGAAAAGAAGUUAUGUAGAAGGCGUCCAAA [69%, Moding Meechl, 14] | 20.6 nM | 15.5 nM
AGUUGGCGAGGAUAUACAUGAGGAUCACCCAUGUGAUAGAAAAAAGUGAGAAAGAAAAGUAGAAGGCGCUGACA [Mat - Exclusion 3 - Lego mod - D92] | 254 nM | 69.9 nM
CCUGUGUGAGGAUAUGGUGUAAAAAAAAAAAAAUAGCUCCUCCAGAAGGCACAUGAGGAUCACCCAUGUCGUGG [Jolly's Folly 18 - Jieux - Exclusion 4] | 65.8 nM | 32.9 nM
AAAGGACAUGAGGAUCACCCAUGUGAGGAUAUGACGUAAAUAAAGAAAGAAGAAAUCGUCAGAAGGCACACCUA [55%, Disencluded 2, 2] | 45.1 nM | 40.7 nM
AACCAACAUGAGGAUCACCCAUGUCAGGAUAUGCGUACAACAUACAACAUACAUCAAAGCAGAAGGGACACAAA [Amethyst 84] | 23.6 nM | 20.2 nM
AAAACACAUGAGGAUCACCCAUGUGAGGAUAUGCUAUGGAAAAUAAAAAUAAAACAUAGCAGAAGGCACAAAGG [Denovo 18] | 244 nM | 32.9 nM
AAAAAGUGAGGAUAUACAUGAGGAUCACCCAUGUGUAUAAAAAAUUACACAAAAGAAUGUAGAAGGCACUAAAA [JL Mayanne Mod Summer] | 124 nM | 23.5 nM
AAGAACGCAGGAUAUACUAAAGAAAUGAAAAGAAAUAAAGAACAUGAGGAUCACCCAUGUAGAAGGGCGAAGAA [Merdjefare] | 32.1 nM | 39.4 nM
AUAAAACAUGAGGAUCACCCAUGUGAGGAUAUGCGAAAAAAAAAAAGAAAAAAAAAAAGCAGAAGGCACAAUAA [Amethyst 43] | 34.9 nM | 32.8 nM
AAAGGGUCAGGAUAUGUACGAACAACAAAACAAAUAACGAUACAGAAGGGACAUGAGGAUCACCCAUGUAUAAA [May 74] | 70.6 nM | 55.8 nM
